Values of other authors as cited in patent US20200131249A1, “NOVEL PROTEINS AND USE THEREOF” (EVOLVERITAS KFT., priority 2017, published 2020).

Molecular target: T1, human MASP-3 (Homo sapiens, UniProt P48740)
T1 construct: catalytic enzyme fragments containing the three C-terminal domains: CCP1-CCP2-SP
T1 sequence (P48740 450-728 isoform P48740-2 limits assumed): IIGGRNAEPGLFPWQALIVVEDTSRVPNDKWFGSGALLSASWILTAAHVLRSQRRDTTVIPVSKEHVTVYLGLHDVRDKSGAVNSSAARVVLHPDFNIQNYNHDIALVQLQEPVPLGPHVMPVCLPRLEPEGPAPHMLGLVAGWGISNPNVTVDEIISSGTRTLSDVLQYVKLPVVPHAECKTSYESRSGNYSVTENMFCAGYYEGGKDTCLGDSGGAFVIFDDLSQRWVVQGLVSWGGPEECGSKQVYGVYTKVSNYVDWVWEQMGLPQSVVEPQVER
Conditions: Data from Héja et al. 2012a; cited from earlier work

SGMI-2 (GSGEVTCEPGTTFKDKCNTCRCGSDGKSAVCTKLWCNQ; Synthetic protein of insect origin) [reference compound]
Ki: ~5 µM
